The series can be described thus: yeast display, Sf9 membrane polyspecificity reagent, FACS + sequencing; frameworks hold sequencing errors. The procedure, abridged:
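A synthetic nanobody library was expressed on Saccharomyces cerevisiae BJ5465 by galactose induction for 36–48 hours. The library was stained for 1 hour at 4 °C with 10% biotinylated, detergent-solubilized Sf9 membrane reagent and enriched with streptavidin microbeads before FACS. Low and high (top ~1%) gates were set on anti-HA fluorescence for expression and streptavidin fluorescence for reagent binding, and each polyreactivity label reflects the gate of origin.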
Turning to “QDQLVESGGGLVQAGGTLRLSCAASGRIFPYNAMGWYRQAPGKERQLVAAISKSGVRTYYADSVKGRFTISRDNAKNTVYLQMNSLNPEETAVYYCAKLSPYGGDVGASEGPEYDYWGQGTQVTVSS”, the “polyreactivity (PSR sort gate)” value was “high polyreactivity”.

Turning to “QDQLVESGGGLVQAGGTLRLSCAASGSTFARYAMGWYRQAPGKERELVAAISRRGGSTYYADSVKGRFTISRDNAKITVDLQMNSLKPEDTAVYSCAARYGIISYLEYDYWGQGTQVTVSS”, the “polyreactivity (PSR sort gate)” value is recorded as “high polyreactivity”.

As for “QDQLVESGGGLVQAGVSLRLSCAASGSIFNRNAMGWYRQAPGKERELVADISWSGGSTYYADSVKGRFTISRDNAKNTVYLQMNSLKPEDTAVYYCADKSTGRWWRAGYDYWGQGTQVTVSS”, the “polyreactivity (PSR sort gate)” value is on record as “high polyreactivity”.

Turning to “QDQLVESGGGLVQAGVSLRLSCPASGYNFDYYVMGWYRQAPGKERELVAAISSSGGSTYYADSVKGRFTISRDNAKNTVYLQMNSLKPEDTAVYYCATKPYPYYLYYYWGQGTQVTVSS”, the “polyreactivity (PSR sort gate)” value is listed as “high polyreactivity”.

Regarding “QDQLVESGGGLVQARGSLRLRCAASGFIFIFNAMGWYRPAPGKERELVAAIDTSDDSTYYADSVKGRFTISRDNGKNTVYLQLNSLKPEDTAVYYCAAEELSNYEYWGQGTQVTVSS”, the “polyreactivity (PSR sort gate)” value was “low polyreactivity”.

For “QDQLVESGGGLVQARGSLRLSSAATGSIFGTKAKGWYRQATGKEKEYDAAIDYSGSITRYADSVKGRFTISRDLSKNTVYLKMNSLKPEDTAVYYCAARSYAKDWGGYNYWGQGTQGTVSS”, the “polyreactivity (PSR sort gate)” value was “high polyreactivity”.

For the sequence “QDQLVESGGGLVQPGGSLRLSCAASGSTFANYAMGWYRQAPGNERQLVAALDHSGGSTYYADSVKGRFTISRDNAKNPVYLQMNSLKPEDTAVYYCNVVNGWLDVSSPDDSLAYLYDYWGQGSQVTVSS”, the “polyreactivity (PSR sort gate)” value is recorded as “low polyreactivity”.

As to “QDQLVESGGGLVQSGGSLLLSCAPSGSTFVWYAMGWYRQERGKEMEFDATISWSDGSTYYADSVKGRFTISRDNPKNTVYLQMNILKPEDTAVYYCAAEQYGYYYSLWEYDNIWEGYWGPGTQVTVSS”, the “polyreactivity (PSR sort gate)” value was “low polyreactivity”.

For “QDQLVESGGGSVQAGGSLRLSCAAYGRIYILYAMGWYRQAPGQERELVAAISWSGGSTYYADSVKGRFTISRDNAKKTVDGQRNSLKPEYTAVYYCNVVSKYKHTYDFDYWGQGTQVNVSS”, the “polyreactivity (PSR sort gate)” value is given as “high polyreactivity”.

For “QDQLVESGGGVVQAGGSLRLSCAASGRIVGSKASGVSIEAPRKESEFVAAISSCSRTYYADSVKGLFSISRDNAKNTVYLQMNSLKPEDTAVYYCAKRGYFYSHRHGYEYGGQGTQVTVSS”, the “polyreactivity (PSR sort gate)” value is on record as “high polyreactivity”.

Take “QDQLVESGGGVVQAGGSLRLSCDASGFIFYRYAMGWSRQAPGKERELLAAISRSGGSTYYADSVKRRFTISRDNAKYTVYLQLKSLKPEDTAVYYCATTGQRNLYLVNYSGQGTQVTVSS”: the “polyreactivity (PSR sort gate)” value was “low polyreactivity”.

For the sequence “QDQLVESGGRLVQAVGSLRLSCAASGRIFTDYTMGWYRQAHGKERELVAAISYSGGSTYYADSVKGRFTISRDNAKNTVYLQMNSLKPEDTAVYYCNKDYYVHDGYGYWGQGTQVTVSS”, the “polyreactivity (PSR sort gate)” value is “low polyreactivity”.

“QDQLVESGGSLVQAGGSLRLSCASSGSIFKGNVMGCYRQAPGKERELVAAITWSAGSTYYADSVKGRFTISRDNAKNTVYLQMNRLKPEDTAVYYCNTDRYHGVDFDYWGQGTQVSVSS”: the “polyreactivity (PSR sort gate)” value is given as “high polyreactivity”.

Regarding “QDQLVESGGVLVQAGGSLRLSCAASGSTFYYYAMGWYRQAPRKEREFVSSISSRRTSTYYADSVKGRLTISRDNAKNNVYLQMNSLKREDTAVYYCADTQYRSDGWRYDYWGQGTQVTVSS”, the “polyreactivity (PSR sort gate)” value is reported as “high polyreactivity”.

Turning to “QDQLVESGGVLVQARGSLRLSCAASASTLPGYAMGWYRQAPGKERELVAAISSSGTSTYYADSVKGRFTISRDNAKNTVYLQMNSLKPEDTAVYYCAAEGYRWVTAYYDYDEDYWGQGTQVTVSS”, the “polyreactivity (PSR sort gate)” value is “low polyreactivity”.

“QDQLVESGRGLVQAGGSLRLSCAASGNTFYRYTMGWYRQAPGNERELVDAISGRGGSTTYADSVKGRFTISRDPAKNTVYLQMKSLIPEDTAVYYCAAVTGGTAYYASTYYYWGQGTQVTVSL”: the “polyreactivity (PSR sort gate)” value was “high polyreactivity”.

“QDQLVESGVGLDQAGGSLRLSCAASGRIFRGSAMGWFSQAPGKEREFVAAITKNGGSTYYADSVNARFTISRDNANNTVYVQMNSLKPEDTAVYDCAVRAWDPDTGNSDYWGQGTQGTVSS”: the “polyreactivity (PSR sort gate)” value was “low polyreactivity”.

As to “QDQLVESGVGLVQAGGSLRLSCAASGYIFLLYDMGWYRQAPGKEREMVATITSGGGTYYADSVKGRVTISRDNAKNTVYLQMNSLIPEDTAVYYCNADLYRWTGRSYWDKHGSWGQGTQVTVSS”, the “polyreactivity (PSR sort gate)” value was “low polyreactivity”.

For the sequence “QDQLVESRGGLVQAGGSLRLSCAASGRTFYINAMGWYRQAPGKERELVAAISWGGGRTYYADSVKGRFTISRDNAKNTVYLQMNSLKPEDTAVYYCAAEVAYYKYDYWGQGTQVTVSS”, the “polyreactivity (PSR sort gate)” value is “high polyreactivity”.

“QDQLVESRGGLVQAGGSLRLSCAASGSIFTVNAMGWYRQAPRKERELVASITWRSGSTYYPDSVKGRFTISRDNAKNSVYLQMNRLKPEDTAFYYCNADSDYPYYPGNFDYWGQGTQVTVSS”: the “polyreactivity (PSR sort gate)” value is listed as “low polyreactivity”.

Take “QDQLVESRGGLVQAGGSLRLSCAAYGRTFIPYAMGWNSQATGKERELVAAITVRGSSTYYADSVKGRFTISRDNAKNTVYFQMNSLKPEDTAIYYCATDRRYRAFYYWGQGTQVTVSS”: the “polyreactivity (PSR sort gate)” value is on record as “high polyreactivity”.

On to “QDQLVESRGGLVQAGGSLSISCAASGFTFRYYAMGWYRQAPGKERELVAGISWRGGSTNYADSVKGRFTISRDNAKNTVYFQMNSLNPDDSEVYSCNAVSYSFPILRVRPTWYDYWGQGTQVTVSS”, for which the “polyreactivity (PSR sort gate)” value is listed as “high polyreactivity”.

Take “QDQLVESVGGLNQAGGSLRLSCAASGIIFYPYTIGWYRQAPGKERELVAAIRQSGTSTYYADSVKGRFTISRDNAKNTVYLQMNSLKPEDTAVYYCNVEPYQPPGHDRSYAYDYWGQGTQVTVSS”: the “polyreactivity (PSR sort gate)” value was “low polyreactivity”.

For “QDQLVESVGGLVQAGCSLRLSSAASVSIFVIYAMGWYRQAPGNERELVAAISWNGGSTFYADSVKGRITISRDNAKNTVYLQMNSQKPEDTAVYYCNTVASYYRWKSYYYWGQGTQVTVSS”, the “polyreactivity (PSR sort gate)” value was “high polyreactivity”.

For “QDQLVESVGGLVQAGGSLPLSSAASGLTFKRNAMRWYSQAPGKERELVAAIRYSTDSTNYADSVKGRFTISRDNAKNTVYCQMNSLKPESTAVYYCAKDKQDYEYWGQGTQVTVSS”, the “polyreactivity (PSR sort gate)” value is “low polyreactivity”.

On to “QDQLVESVGGLVQAGGSLRLSCAASAITFGNYAMGWYRQAPGKERELVAGISWSGSSTYYADSVKGRFTISRDNSKNTVYLQMNSLKPEDTAVYYCNAVQPARFVGGFGTGVDYWGQGTQVTVSS”, for which the “polyreactivity (PSR sort gate)” value is given as “high polyreactivity”.

Regarding “QDQLVESVGGLVQAGGSLRLSCAASGLTISQNAMGWYRQAPGKERELVAAITRSGSTTHYADSVKWRFTISRDNAKNTVYLQMNSLKPEDTAVYYCAAAHSYYGHYYYWGQGTQVTVSS”, the “polyreactivity (PSR sort gate)” value is on record as “high polyreactivity”.

On to “QDQLVESVGGLVQAGGSLRLSCAASGRIFWVNAMGWSRQAPGKERELVAAISWTSGSTYYADSVKGRFTISRDNAKNTVYLQMNSLKPEDTAVYYCNKVQSGEYDYWGQGTQVTVSS”, for which the “polyreactivity (PSR sort gate)” value is “high polyreactivity”.

“QDQLVESVGGLVQAGGSLRLSCAASGSTIVRNAMGWYRQPPGKERELVAAISVDSGSTYYADSVKGRFTISRDNAKNTVYLQMNSLKPEDTAVYYCAADGTRGQEYDYWGQGTLVTVSS”: the “polyreactivity (PSR sort gate)” value was “low polyreactivity”.

Turning to “QDQLVESVGGLVQAGGSLRLSCAASVRIFYWNAIGWYRQATGKESELVATITRGDRTYYADSVKGRFTISRDNAKNTVYLQMNSLKPEDTAVYYCARSSNPYFYGMYYWGQGTQVTVSS”, the “polyreactivity (PSR sort gate)” value is given as “high polyreactivity”.

Regarding “QDQLVESVGGLVQAGVSLPLSCAASGIIFLYNDMGWFRQARGKAREFVATLSRSGGSTYYADSVKGRVTISRDNAKNTVYLQMNRLKPEETAVYYCAADEDSGYGYWGQGTQVTVTS”, the “polyreactivity (PSR sort gate)” value is listed as “low polyreactivity”.

“QDQLVESWGALVQAGGRLRLICAASGTIFSRNTMRSYRQAPGKDRELVAGISSSGSRTYYADSVKGRFTISRDNAKNTVYLQMNSLKPEDNAVYYCAAEHQRSRGRRYYIGYDYWGQGTQVTVSS”: the “polyreactivity (PSR sort gate)” value is “low polyreactivity”.

“QDQLVETGGGLVQAGGSLRLSCSASGSIFAAYTMGWYRQAPGKECELVATISSGGSTYYADSVKGRFTISRDNAKNTVYLQMNSLKPEDTAVYYCAAVAYTYTEYEYWGQGTQVTVSS”: the “polyreactivity (PSR sort gate)” value is listed as “low polyreactivity”.

For the sequence “QDQLVQSGGGIVQAGGSLRLSCAASGSTFILYAMGWYRQAPGKESELVAAISTSGGSTYYADSVKGRVTISRDNAKNTVYFHMNSLKPDDTAVYYCIAGLSVTHGTSIPFRKYEYWGQGTQVNVSS”, the “polyreactivity (PSR sort gate)” value is given as “low polyreactivity”.

With “QDQRVDSGGGLVQAGGSLRLSCTAYGFIFGWYAMGWYRQSPGKASQLVAPISQSVGSTYYADSVKGRFTISRDNAKNTVYLQMNSLKPEDSAVYYCNAVGRGSRSRLSSRAGGGDYWGQGTQVTVSS”, the “polyreactivity (PSR sort gate)” value is listed as “high polyreactivity”.

For “QDQRVESGGGIDQAGGSLRLSCAASGSTVDFNAMGWYRQAPGTERELVAAITYSGGSTYYADSVKGRFTISRDNAKNTVYLQMNSLKPQDTAVYYCAAEDVYPGSIDMDYWGQGTQVSVSS”, the “polyreactivity (PSR sort gate)” value was “low polyreactivity”.

As for “QDQVVESGGGLVQAGGSVRLSCADSGSIFWRNAMGWYRQAPGKEREWVAAITSGGTTNYADSVKGRFTLSRDNAKNTVYLQLNTQKPEVTAGDYCATGASDLRRYDHPHSDVDYWGQGTQVTVSA”, the “polyreactivity (PSR sort gate)” value is reported as “low polyreactivity”.

Consider “QEHLVESGGGLVQAGGTLRLSCAASGGTFYVNDMGWYRQPPGKESELVATITYSGTSTYYADSVTGSFTISRDNAKNTVYLQMNSLKPEDTAVYYGATDVLLYLEPVNLDYCGQGTQVTVSS”, for which the “polyreactivity (PSR sort gate)” value is “low polyreactivity”.

Consider “QEQLEESGGGVVQAGGSLRLSCAAYGSIFYAYSMGWYRQAPGKEREFVAASSKRGGSTYYSDSVKGRFTISRDNEKNTVYLQMNSLKPEDTAVYYCYVGYGYWRGVKQSYDRFDYWGQGTQVTVSS”, for which the “polyreactivity (PSR sort gate)” value is “high polyreactivity”.

As to “QEQLLESGGGLVQAGGSLRLSCAASGYISSHIMSWYRQAPGKEREFVDTITDGGTTNYADSVKGRFTISRDNAKNTVYLQMNSLKPEDTAVYYCAAVATYSYHFGYWGHGTQVTVSS”, the “polyreactivity (PSR sort gate)” value was “high polyreactivity”.

For the origin of these results see the nanobody polyreactivity screen of Harvey et al. (2022).
